One assay deals with T1, endogenous KIF11 (Homo sapiens, UniProt P52732).
T1 construct: endogenous in cells
T1 sequence (P52732 1-1056): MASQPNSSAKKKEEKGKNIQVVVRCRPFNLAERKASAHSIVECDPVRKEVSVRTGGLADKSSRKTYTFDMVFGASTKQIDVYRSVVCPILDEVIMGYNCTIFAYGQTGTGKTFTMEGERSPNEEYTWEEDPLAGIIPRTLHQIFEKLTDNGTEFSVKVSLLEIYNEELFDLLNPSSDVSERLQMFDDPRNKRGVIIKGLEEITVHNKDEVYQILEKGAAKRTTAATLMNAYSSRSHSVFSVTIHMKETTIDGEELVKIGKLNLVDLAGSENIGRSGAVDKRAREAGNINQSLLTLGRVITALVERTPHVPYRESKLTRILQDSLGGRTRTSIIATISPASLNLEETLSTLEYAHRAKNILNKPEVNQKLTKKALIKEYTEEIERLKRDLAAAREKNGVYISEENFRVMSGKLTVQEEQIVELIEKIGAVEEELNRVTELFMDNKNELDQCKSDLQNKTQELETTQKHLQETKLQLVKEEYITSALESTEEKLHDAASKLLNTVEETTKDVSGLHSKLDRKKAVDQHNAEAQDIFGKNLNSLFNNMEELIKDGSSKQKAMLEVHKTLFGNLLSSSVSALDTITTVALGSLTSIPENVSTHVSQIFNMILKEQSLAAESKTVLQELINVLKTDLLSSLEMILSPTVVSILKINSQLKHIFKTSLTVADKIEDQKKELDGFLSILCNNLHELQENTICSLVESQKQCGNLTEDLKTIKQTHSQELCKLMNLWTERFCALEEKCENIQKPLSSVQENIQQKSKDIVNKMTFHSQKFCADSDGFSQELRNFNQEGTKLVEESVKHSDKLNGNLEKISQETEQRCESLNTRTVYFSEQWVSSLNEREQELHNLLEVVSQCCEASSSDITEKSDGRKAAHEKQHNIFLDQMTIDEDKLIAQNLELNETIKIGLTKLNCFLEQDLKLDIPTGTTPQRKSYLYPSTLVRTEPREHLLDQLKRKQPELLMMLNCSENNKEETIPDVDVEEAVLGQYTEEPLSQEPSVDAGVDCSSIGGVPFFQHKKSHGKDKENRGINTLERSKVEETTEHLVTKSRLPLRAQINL
Briefly: Immunoprecipitation of KOC1 deletion mutants with endogenous KIF11. The format is binding.

For another assay, the target named is T2, KOC1-KIF11 complex (Homo sapiens, UniProt P52732).
T2 construct: endogenous in cells; host or cells: LC319 (KOC1DEL3) and A549 (KOC1DEL2)
T2 sequence (P52732 1-1056): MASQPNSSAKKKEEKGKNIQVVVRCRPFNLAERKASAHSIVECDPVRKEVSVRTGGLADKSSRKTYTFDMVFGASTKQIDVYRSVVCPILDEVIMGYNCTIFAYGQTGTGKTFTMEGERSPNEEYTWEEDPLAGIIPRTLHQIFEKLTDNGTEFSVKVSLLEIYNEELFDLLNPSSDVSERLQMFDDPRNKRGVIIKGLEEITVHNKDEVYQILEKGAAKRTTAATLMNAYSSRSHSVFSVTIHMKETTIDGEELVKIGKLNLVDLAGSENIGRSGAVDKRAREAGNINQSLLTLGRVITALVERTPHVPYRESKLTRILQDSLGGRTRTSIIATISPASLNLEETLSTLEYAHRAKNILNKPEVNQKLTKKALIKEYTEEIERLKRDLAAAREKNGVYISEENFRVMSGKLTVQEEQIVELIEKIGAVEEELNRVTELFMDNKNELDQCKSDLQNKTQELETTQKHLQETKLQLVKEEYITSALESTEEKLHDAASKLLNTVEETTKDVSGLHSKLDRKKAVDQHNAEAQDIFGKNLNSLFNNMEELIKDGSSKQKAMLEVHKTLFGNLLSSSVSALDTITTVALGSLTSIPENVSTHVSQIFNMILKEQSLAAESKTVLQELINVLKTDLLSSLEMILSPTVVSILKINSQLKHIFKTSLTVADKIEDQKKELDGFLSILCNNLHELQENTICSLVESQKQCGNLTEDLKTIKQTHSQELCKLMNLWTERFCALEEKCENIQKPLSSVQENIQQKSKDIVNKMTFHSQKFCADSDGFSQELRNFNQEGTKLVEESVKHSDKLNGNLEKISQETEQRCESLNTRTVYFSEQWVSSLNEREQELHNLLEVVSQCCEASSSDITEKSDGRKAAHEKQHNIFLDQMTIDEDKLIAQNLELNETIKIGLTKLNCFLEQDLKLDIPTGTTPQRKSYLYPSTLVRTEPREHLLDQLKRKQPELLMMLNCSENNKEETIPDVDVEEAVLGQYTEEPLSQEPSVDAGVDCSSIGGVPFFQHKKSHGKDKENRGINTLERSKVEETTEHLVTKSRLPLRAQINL
Briefly: Immunoprecipitation of endogenous KOC1-KIF11 complex after dominant-negative transfection. The format is cell-based. The protocol:
We performed dominant-negative assays using the KOC1 deletion mutants to investigate the functional role of the KOC1-KIF11 complex in growth or survival of lung-cancer cells. The KOC1DEL3 and KOC1DEL2 construct (FIG. 3a; 10 μg), mock plasmid (10 μg), or plasmid mixtures of both constructs in the final dose of 10-μg DNA (KOC1DEL3 or KOC1DEL2 vs mock (μg), 7.5:2.5; 5:5; or 2.5:7.5, individually) were transfected into LC319 cells. The transfected cells were cultured for 7 days in the presence of G418 and their viability was measured by triplicate MTT assays.
To investigate the functional significance of KOC1-KIF11 interaction for growth or survival of lung-cancer cells, a deletion fragment of KOC1 containing the two RRMs, which was able to interact with KIF11 (KOC1DEL3; FIG. 3a, b) was examined for a dominant-negative function of suppressing direct interaction between endogenous KOC1 and KIF11. […] We also confirmed that transfection of construct containing only KH-domains control have no effect on proliferation. […]

In a further assay the test system is RAB35 mRNA. Briefly: Northwestern blot analysis with DIG-labeled RAB35 mRNA. The format is binding. Conditions: deletion mutants expressed in A549 cells, compared to full-length KOC1. The protocol:
Immunoprecipitated extracts from cells transfected with the KOC1 deletion mutants (μM) were boiled in 2×SDS-sample buffer, electrophoresed through 10-20% gradient polyacrylamide gels (BIO-RAD) and transferred to a polyvinylidene difluoride membrane (Hybond-P). The membrane was then blocked for 1 hour at room temperature in blocking buffer (10 mM Tris-HCl (pH 7.8), 150 mM NaCl, 1 mg/ml yeast tRNA), and washed twice with 50 ml of 10 mM Tris-HCl (pH 7.8) for 5 min and incubated with DIG-labeled RNA probe in 5 ml of NWB buffer (10 mM Tris-HCl (pH 7.8), 1 mM EDTA, 50 mM NaCl, 0.02% Ficoll, 0.02% polyvinyl pyrrolidone, 0.02% BSA) for 2 hours at room temperature. The membrane was washed four times with NWB buffer and the RNA probe bound to the proteins was then detected using DIG nucleic acid detection kit (Roche) according to the supplier's protocol.
To determine the region of KOC1 that is required for binding to KOC1-associated mRNAs, we performed northwestern blot analysis using immunoprecipitated recombinant proteins of KOC1 deletion-mutants expressed in A549 cells (FIG. 4a) and DIG-labeled RAB35 mRNA, which is one of the KOC1 associated mRNAs.

The subject of a further assay is LC319 cells. As to the kind of experiment: Triplicate MTT assay of cell viability, LC319. The format is cell-based, human. Conditions: LC319, plasmid 2.5-10 μg vs mock, 7 days with G418; P<0.001 KOC1DEL3 vs mock. The protocol:
Using 30 μl of Lipofectamine 2000 (Invitrogen), 10 μg of siRNA-expression vector were transfected into NSCLC cell lines, A549 and LC319, both endogenously over-expressing KOC1, KIF11, NMU, GHSR1b, NTSR1, RAB35, and FOXM1. […] The transfected cells were cultured for five days in the presence of appropriate concentrations of geneticin (G418), and then, cell numbers and viability were measured by Giemsa staining and triplicate MTT assays. The target sequences of the synthetic oligonucleotides for RNAi were as follows: control 1 (EGFP: enhanced green fluorescent protein (EGFP) gene, a mutant of Aequorea victoria EGFP), 5′-[…]-3′ (SEQ.ID.NO.29); control 2 (Luciferase: Photinus pyralis luciferase gene), 5′-[…]-3′ (SEQ.ID.NO.30); control 3 (Scramble: chloroplast Euglena gracilis gene coding for 5S and 16S rRNAs), 5′-[…]-3′ (SEQ. ID. NO.31);
We performed dominant-negative assays using the KOC1 deletion mutants to investigate the functional role of the KOC1-KIF11 complex in growth or survival of lung-cancer cells. […] The transfected cells were cultured for 7 days in the presence of G418 and their viability was measured by triplicate MTT assays.
Background: Formazan colour is commonly taken as a measure of viable cells.

The subject of the next assay is A549 cells. Briefly: Triplicate MTT assay of cell viability, A549. The format is cell-based, human. Conditions: A549, plasmid dose-dependent vs mock; P=0.0006 KOC1DEL2 vs mock.

From patent US7972772B2, “KIF11 and method for diagnosing non-small cell lung cancer” (Oncotherapy Science, Inc., priority 2004, dated 2011) come the findings set out here.

B1: KOC1DEL3: KOC1 deletion mutant 2×RRM without KH, positions 1-197 of SEQ ID NO:105 (protein, listed as Homo sapiens)
chain: MNKLYIGNLSENAAPSDLESIFKDAKIPVSGPFLVKTGYAFVDCPDESWALKAIEALSGKIELHGKPIEVEHSVPKRQRIRKLQIRNIPPHLQWEVLDSLLVQYGVVESCEQVNTDSETAVVNVTYSSKDQARQALDKLNGFQLENFTLKVAYIPDEMAAQQNPLQQPRGRRGLGQRGSSRQGSPGSVSKQKPCDLP
Take B1: the “interaction with endogenous KIF11 (immunoprecipitation)” value in the assay with endogenous KIF11 (LC319 cells) is listed as “detected interaction”. Further, the “complex formation between endogenous KOC1 and KIF11” value with KOC1-KIF11 complex (LC319 cells over-expressing the RRM domains) is “reduce complex formation”. Further, in the assay with RAB35 mRNA, the “binding to RAB35 mRNA (northwestern blot)” value is on record as “did not bind”. Also, the “cell viability (MTT), dominant-negative assay” value in the assay on LC319 cells was “significant dose-dependent decreases”.

B2: KOC1DEL2: KOC1 deletion mutant 2×RRM+2×KH, positions 1 to 406 of SEQ ID NO:105 (protein, listed as Homo sapiens)
chain: MNKLYIGNLSENAAPSDLESIFKDAKIPVSGPFLVKTGYAFVDCPDESWALKAIEALSGKIELHGKPIEVEHSVPKRQRIRKLQIRNIPPHLQWEVLDSLLVQYGVVESCEQVNTDSETAVVNVTYSSKDQARQALDKLNGFQLENFTLKVAYIPDEMAAQQNPLQQPRGRRGLGQRGSSRQGSPGSVSKQKPCDLPLRLLVPTQFVGAIIGKEGATIRNITKQTQSKIDVHRKENAGAAEKSITILSTPEGTSAACKSILEIMHKEAQDIKFTEEIPLKILAHNNFVGRLIGKEGRNLKKIEQDTDTKITISPLQELTLYNPERTITVKGNVETCAKAEEEIMKKIRESYENDIASMNLQAHLIPGLNLNALGLFPPTSGMPPPTSGPPSAMTPPYPQFEQSETE
As for B2, the “interaction with endogenous KIF11 (immunoprecipitation)” value with endogenous KIF11 (A549 cells) was “detected interaction”. Further, the “complex formation between endogenous KOC1 and KIF11” value with KOC1-KIF11 complex (A549 cells over-expressing KOC1DEL2) was “reduced complex formation”. Besides, the “binding to RAB35 mRNA (northwestern blot)” value with RAB35 mRNA is “very weak binding affinities”. Moreover, in the assay on A549 cells, the “cell viability (MTT), dominant-negative assay” value was “significant dose-dependent decreases”.
